Results as given in PMC7396682, “Effect of a Novel Alpha/Beta Hydrolase Domain Protein on Tolerance of K. marxianus to Lignocellulosic Biomass Derived Inhibitors” (Frontiers in Bioengineering and Biotechnology, 2020).
Changes are numbered by the printed parent chain. Numbers in names are those of the source.

B1: KmYME (Kluyveromyces marxianus DMKU3-1042) (protein)
chain: MLLAYTVRPSNWSFTRRAYSATARAFNQQKGLLPLPIKETVDMAYDLHLPERSVIGKMPYHSPEPIIFYHGLLGSKRNYRHDCKKLATALQTPVYTVDIRNHGSSEHALPFDYNTLVNDLVHFAETHSLGKVNLVGYSLGAKVAMLACLKHPERFSAACIIDNSPEEQPHIKPLLTALVKSCVKLLDHHNVRADDKLWRHKASEALKKYIPDAGIRYYLLSNIINNPRVVEYRSPVINYDDGMLHFKNPVRHMMDFVTKEVAAWPTQELEGKQFLGPVNFIKATRSDFINPKSLQAINQYFPYHNIDEINATHFILNERPQEYLRAVTDFFKVTRYQLEKKREQDLAKIDQLNASESLKSARD
notes: expressed from pWD010 (T7 promoter) in E. coli BL21(DE3), nickel-column purified (tag not described); native full length 360 aa
B2: KmYME (Kluyveromyces marxianus DMKU3-1042; L139M/Y137H) (protein)
chain: B1 chain with Y137H, L139M
notes: as for B1

Experiments:
Test in all cases: purified protein
Type in all cases: biochemical, Kluyveromyces marxianus
purified protein [1] = substrate: CCCC(=O)SCCNC(=O)CCNC(=O)[C@H](O)C(C)(C)COP(=O)(O)OP(=O)(O)OC[C@H]1O[C@@H](n2cnc3c(N)ncnc32)[C@H](O)[C@@H]1OP(=O)(O)O; conditions: 100 mM HEPES, pH 8.0, 37 °C, 1 mM DTNB
purified protein [2] = substrate: CC(=O)Oc1ccc([N+](=O)[O-])cc1; conditions: 50 mM Tris-HCl, pH 8.0, 37 °C
purified protein [3] = substrate: CC(C)(COP(=O)(O)OP(=O)(O)OC[C@H]1O[C@@H](n2cnc3c(N)ncnc32)[C@H](O)[C@@H]1OP(=O)(O)O)[C@@H](O)C(=O)NCCC(=O)NCCSC(=O)CCC(=O)O; conditions: 100 mM HEPES, pH 8.0, 37 °C, 1 mM DTNB
purified protein [4] = substrate: CCCC(=O)Oc1ccc([N+](=O)[O-])cc1; conditions: 50 mM Tris-HCl, pH 8.0, 37 °C
purified protein [5] = substrate: CCCCCCCCCC(=O)SCCNC(=O)CCNC(=O)[C@H](O)C(C)(C)COP(=O)(O)OP(=O)(O)OC[C@H]1O[C@@H](n2cnc3c(N)ncnc32)[C@H](O)[C@@H]1OP(=O)(O)O; conditions: 100 mM HEPES, pH 8.0, 37 °C, 1 mM DTNB

| Protein | Km (purified protein [1]) [µM] | Km (purified protein [2]) [µM] | Km (purified protein [3]) [µM] | Km (purified protein [4]) [µM] | Km (purified protein [5]) [µM] |
| --- | --- | --- | --- | --- | --- |
| B1 | 468.44 ± 20.62 | 189.73 ± 12.20 | 387.58 ± 3.42 | 258.41 ± 5.97 | 329.20 ± 12.75 |
| B2 | 1138.20 ± 185.83 | 193.89 ± 10.00 | 1022.84 ± 145.83 | 685.66 ± 34.83 | 449.88 ± 87.78 |
